Data set [1] concerns the target UbcH7˜125I-ubiquitin thioester (UniProt P68036).
Data set [2] addresses HPV16 E6 protein (recombinant, full-length) (UniProt P03126).

Chain of UbcH7˜125I-ubiquitin thioester (P68036 whole entry, looked up): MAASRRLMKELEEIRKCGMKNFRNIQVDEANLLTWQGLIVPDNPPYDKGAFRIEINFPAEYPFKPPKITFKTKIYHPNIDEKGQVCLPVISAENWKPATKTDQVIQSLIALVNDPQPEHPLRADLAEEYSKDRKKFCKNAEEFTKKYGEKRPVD
Chain of HPV16 E6 protein (recombinant, full-length) (P03126 whole entry): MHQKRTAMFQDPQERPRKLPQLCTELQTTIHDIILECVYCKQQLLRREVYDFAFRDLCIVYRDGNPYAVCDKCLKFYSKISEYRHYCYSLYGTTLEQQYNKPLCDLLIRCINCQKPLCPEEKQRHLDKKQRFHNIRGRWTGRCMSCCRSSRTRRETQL

Regarding “His6-E6AP ligase (full-length, baculovirus-expressed)”, in data set [1], the Km- is 0.046 µM. For the same substance, the “kcat of 125I-polyubiquitin chain formation in the presence of E6” value in data set [2] stood at 0.81±0.045 s^-1 in its presence. Consider “GST-E6AP ligase (wild-type, bacterially expressed fusion protein)”, for which the Km- in data set [1] was found to be 0.058 µM.
